Measured values from patent US20250277046A1 (JULIUS MAXIMILIANS UNIVERSIT T W RZBURG, published 2025).
Each block holds one binder with its values, some of them ahead of it.

Target: T1, Fibroblast growth factor (FGF)-inducible 14 (Fn14) (UniProt Q9NP84 28-129, limits assumed)
T1 sequence (looked up): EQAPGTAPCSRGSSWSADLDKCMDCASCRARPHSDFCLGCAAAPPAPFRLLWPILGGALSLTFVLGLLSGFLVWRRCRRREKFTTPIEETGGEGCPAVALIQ
Assay: cell-based or functional assay

p100 processing (western blot), starting concentration: ~200 ng/mL
B4: 18D1-(7) (antibody)
heavy: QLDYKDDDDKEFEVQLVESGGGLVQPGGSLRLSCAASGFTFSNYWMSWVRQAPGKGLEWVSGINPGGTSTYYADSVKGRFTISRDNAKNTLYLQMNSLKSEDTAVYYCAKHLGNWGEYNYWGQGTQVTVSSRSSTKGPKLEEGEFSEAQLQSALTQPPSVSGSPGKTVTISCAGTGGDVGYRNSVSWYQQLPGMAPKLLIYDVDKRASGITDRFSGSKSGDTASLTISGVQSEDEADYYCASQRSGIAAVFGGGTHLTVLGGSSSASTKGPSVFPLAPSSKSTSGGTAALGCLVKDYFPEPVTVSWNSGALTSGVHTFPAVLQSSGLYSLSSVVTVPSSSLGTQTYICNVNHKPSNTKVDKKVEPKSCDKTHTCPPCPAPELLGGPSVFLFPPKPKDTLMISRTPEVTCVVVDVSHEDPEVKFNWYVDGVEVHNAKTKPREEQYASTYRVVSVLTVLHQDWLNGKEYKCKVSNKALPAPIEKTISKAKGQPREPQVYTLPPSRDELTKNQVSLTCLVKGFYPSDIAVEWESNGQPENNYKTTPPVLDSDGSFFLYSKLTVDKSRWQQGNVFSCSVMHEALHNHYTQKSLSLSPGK
light: QLDYKDDDDKEFEVQLVESGGGLVQPGGSLRLSCAASGFTFSNYWMSWVRQAPGKGLEWVSGINPGGTSTYYADSVKGRFTISRDNAKNTLYLQMNSLKSEDTAVYYCAKHLGNWGEYNYWGQGTQVTVSSRSSTKGPKLEEGEFSEAQLQSALTQPPSVSGSPGKTVTISCAGTGGDVGYRNSVSWYQQLPGMAPKLLIYDVDKRASGITDRFSGSKSGDTASLTISGVQSEDEADYYCASQRSGIAAVFGGGTHLTVLGGSEIKRTVAAPSVFIFPPSDEQLKSGTASVVCLLNNFYPREAKVQWKVDNALQSGNSQESVTEQDSKDSTYSLSSTLTLSKADYEKHKVYACEVTHQGLSSPVTKSFNRGECLEEVQLVESGGGLVQPGGSLRLSCAASGFTFSNYWMSWVRQAPGKGLEWVSGINPGGTSTYYADSVKGRFTISRDNAKNTLYLQMNSLKSEDTAVYYCAKHLGNWGEYNYWGQGTQVTVSSRSSTKGPKLEEGEFSEAQLQSALTQPPSVSGSPGKTVTISCAGTGGDVGYRNSVSWYQQLPGMAPKLLIYDVDKRASGITDRFSGSKSGDTASLTISGVQSEDEADYYCASQRSGIAAVFGGGTHLTVLG
enhancement of TNF-induced toxicity (HeLa-RIPK3-FADDKO cells, 1 ng/ml TNF), ED50: < 0.1 µg/mL

p100 processing (western blot), starting concentration: ~200 ng/mL
B5: 18D1-(8) (antibody)
heavy: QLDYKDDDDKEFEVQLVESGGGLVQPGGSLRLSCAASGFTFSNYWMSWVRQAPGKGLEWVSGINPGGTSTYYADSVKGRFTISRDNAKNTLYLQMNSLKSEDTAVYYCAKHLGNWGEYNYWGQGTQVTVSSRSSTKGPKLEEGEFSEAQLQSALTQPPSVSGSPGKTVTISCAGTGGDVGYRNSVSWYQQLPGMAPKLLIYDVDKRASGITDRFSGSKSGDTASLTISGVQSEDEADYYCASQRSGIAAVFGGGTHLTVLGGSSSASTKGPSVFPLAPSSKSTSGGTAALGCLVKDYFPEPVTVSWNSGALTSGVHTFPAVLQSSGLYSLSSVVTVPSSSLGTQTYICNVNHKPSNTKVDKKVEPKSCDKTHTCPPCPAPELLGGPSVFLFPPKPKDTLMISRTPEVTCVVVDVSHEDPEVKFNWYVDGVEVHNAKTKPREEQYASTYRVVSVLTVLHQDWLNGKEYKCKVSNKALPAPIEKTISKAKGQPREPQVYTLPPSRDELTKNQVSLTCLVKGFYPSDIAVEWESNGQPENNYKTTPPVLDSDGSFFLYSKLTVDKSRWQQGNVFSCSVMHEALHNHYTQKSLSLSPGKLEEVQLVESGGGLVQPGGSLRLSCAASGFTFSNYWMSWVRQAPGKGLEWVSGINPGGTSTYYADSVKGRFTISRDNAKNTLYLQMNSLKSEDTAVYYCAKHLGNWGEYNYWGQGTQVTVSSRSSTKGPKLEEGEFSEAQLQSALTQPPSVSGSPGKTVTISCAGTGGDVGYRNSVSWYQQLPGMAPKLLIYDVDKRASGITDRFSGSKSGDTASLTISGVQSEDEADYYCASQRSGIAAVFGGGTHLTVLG
light: B4 light
enhancement of TNF-induced toxicity (HeLa-RIPK3-FADDKO cells, 1 ng/ml TNF), ED50: < 0.1 µg/mL

Continued, binder first:

B1: 18D1-(2) (antibody)
heavy: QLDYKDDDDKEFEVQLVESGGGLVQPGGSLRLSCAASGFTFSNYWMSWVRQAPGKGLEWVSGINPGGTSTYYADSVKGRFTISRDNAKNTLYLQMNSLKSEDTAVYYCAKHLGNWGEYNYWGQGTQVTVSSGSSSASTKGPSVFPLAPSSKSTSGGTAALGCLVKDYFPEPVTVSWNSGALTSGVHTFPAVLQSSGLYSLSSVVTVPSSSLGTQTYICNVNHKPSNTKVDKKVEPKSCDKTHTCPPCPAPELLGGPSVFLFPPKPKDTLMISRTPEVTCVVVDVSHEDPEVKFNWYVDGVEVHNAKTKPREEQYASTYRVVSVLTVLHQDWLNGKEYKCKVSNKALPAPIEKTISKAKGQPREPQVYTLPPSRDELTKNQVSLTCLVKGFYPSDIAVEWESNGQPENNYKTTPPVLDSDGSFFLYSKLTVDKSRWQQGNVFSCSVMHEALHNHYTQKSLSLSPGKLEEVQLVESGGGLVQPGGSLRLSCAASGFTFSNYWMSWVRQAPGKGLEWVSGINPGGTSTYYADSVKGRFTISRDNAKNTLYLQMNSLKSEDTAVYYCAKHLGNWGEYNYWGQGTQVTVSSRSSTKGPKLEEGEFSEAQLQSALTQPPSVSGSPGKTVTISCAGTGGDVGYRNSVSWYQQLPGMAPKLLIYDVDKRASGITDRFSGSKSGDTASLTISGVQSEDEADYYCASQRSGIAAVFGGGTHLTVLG
light: QLDYKDDDDKEFQSALTQPPSVSGSPGKTVTISCAGTGGDVGYRNSVSWYQQLPGMAPKLLIYDVDKRASGITDRFSGSKSGDTASLTISGVQSEDEADYYCASQRSGIAAVFGGGTHLTVLGGSEIKRTVAAPSVFIFPPSDEQLKSGTASVVCLLNNFYPREAKVQWKVDNALQSGNSQESVTEQDSKDSTYSLSSTLTLSKADYEKHKVYACEVTHQGLSSPVTKSFNRGEC
enhancement of TNF-induced toxicity (HeLa-RIPK3-FADDKO cells, 1 ng/ml TNF), ED50: < 0.1 µg/mL
p100 processing (western blot), starting concentration: ~20 ng/mL

B2: 18D1-(5) (antibody)
heavy: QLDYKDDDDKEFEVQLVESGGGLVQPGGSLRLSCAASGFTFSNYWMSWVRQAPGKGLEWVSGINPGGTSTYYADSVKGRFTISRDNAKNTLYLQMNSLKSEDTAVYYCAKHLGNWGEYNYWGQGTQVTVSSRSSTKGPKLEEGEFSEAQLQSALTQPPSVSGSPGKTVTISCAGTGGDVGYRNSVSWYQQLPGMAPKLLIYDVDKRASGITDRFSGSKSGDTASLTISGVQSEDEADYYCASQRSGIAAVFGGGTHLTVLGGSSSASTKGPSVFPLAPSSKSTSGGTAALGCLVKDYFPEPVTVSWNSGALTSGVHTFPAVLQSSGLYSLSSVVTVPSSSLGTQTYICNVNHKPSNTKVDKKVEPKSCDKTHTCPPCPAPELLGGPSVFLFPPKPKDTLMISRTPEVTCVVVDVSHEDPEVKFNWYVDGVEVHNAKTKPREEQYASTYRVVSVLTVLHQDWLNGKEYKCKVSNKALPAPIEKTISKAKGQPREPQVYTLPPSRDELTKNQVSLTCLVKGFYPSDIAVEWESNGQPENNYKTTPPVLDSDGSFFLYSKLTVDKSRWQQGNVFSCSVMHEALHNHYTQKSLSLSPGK
light: QLDYKDDDDKEFEVQLVESGGGLVQPGGSLRLSCAASGFTFSNYWMSWVRQAPGKGLEWVSGINPGGTSTYYADSVKGRFTISRDNAKNTLYLQMNSLKSEDTAVYYCAKHLGNWGEYNYWGQGTQVTVSSRSSTKGPKLEEGEFSEAQLQSALTQPPSVSGSPGKTVTISCAGTGGDVGYRNSVSWYQQLPGMAPKLLIYDVDKRASGITDRFSGSKSGDTASLTISGVQSEDEADYYCASQRSGIAAVFGGGTHLTVLGGSEIKRTVAAPSVFIFPPSDEQLKSGTASVVCLLNNFYPREAKVQWKVDNALQSGNSQESVTEQDSKDSTYSLSSTLTLSKADYEKHKVYACEVTHQGLSSPVTKSFNRGEC
enhancement of TNF-induced toxicity (HeLa-RIPK3-FADDKO cells, 1 ng/ml TNF), ED50: < 0.1 µg/mL
p100 processing (western blot), starting concentration: ~200 ng/mL

B3: 18D1-(6) (antibody)
heavy: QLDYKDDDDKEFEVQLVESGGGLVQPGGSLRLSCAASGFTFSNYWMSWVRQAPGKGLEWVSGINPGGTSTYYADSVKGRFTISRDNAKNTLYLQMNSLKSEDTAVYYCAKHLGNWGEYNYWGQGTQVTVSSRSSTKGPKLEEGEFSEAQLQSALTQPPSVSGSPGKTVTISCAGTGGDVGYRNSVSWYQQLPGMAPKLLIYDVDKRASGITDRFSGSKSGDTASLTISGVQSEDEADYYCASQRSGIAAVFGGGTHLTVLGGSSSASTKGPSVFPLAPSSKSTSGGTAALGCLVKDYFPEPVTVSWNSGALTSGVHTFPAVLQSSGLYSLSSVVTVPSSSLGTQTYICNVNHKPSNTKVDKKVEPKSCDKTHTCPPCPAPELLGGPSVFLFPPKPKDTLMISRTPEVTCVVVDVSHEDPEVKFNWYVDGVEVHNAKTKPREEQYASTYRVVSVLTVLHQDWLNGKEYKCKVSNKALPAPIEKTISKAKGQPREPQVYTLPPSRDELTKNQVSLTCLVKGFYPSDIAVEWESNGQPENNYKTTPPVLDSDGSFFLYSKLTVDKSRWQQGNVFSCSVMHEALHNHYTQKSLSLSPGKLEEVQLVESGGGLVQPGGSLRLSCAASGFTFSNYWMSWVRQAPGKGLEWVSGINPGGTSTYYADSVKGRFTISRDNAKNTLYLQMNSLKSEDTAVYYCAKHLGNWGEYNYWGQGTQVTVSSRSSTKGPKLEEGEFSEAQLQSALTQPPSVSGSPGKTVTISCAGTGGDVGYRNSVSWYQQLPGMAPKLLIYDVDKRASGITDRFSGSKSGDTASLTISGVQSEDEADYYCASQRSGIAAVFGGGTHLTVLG
light: B2 light
enhancement of TNF-induced toxicity (HeLa-RIPK3-FADDKO cells, 1 ng/ml TNF), ED50: < 0.1 µg/mL
p100 processing (western blot), starting concentration: ~200 ng/mL

B6: 18D1-(3) (antibody)
heavy: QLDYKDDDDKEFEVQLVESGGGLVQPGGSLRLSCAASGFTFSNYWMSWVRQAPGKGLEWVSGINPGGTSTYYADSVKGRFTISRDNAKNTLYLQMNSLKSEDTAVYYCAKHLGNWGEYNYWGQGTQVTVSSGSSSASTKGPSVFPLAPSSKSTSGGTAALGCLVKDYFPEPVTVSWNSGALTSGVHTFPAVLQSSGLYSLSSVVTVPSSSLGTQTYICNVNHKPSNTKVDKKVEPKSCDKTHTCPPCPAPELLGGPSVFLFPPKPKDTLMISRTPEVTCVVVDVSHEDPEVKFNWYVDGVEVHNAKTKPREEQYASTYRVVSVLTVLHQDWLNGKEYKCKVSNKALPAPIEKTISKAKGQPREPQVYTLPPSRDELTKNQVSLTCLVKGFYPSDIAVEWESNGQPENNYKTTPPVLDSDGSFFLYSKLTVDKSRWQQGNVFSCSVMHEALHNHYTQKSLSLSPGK
light: QLDYKDDDDKEFQSALTQPPSVSGSPGKTVTISCAGTGGDVGYRNSVSWYQQLPGMAPKLLIYDVDKRASGITDRFSGSKSGDTASLTISGVQSEDEADYYCASQRSGIAAVFGGGTHLTVLGGSEIKRTVAAPSVFIFPPSDEQLKSGTASVVCLLNNFYPREAKVQWKVDNALQSGNSQESVTEQDSKDSTYSLSSTLTLSKADYEKHKVYACEVTHQGLSSPVTKSFNRGECLEEVQLVESGGGLVQPGGSLRLSCAASGFTFSNYWMSWVRQAPGKGLEWVSGINPGGTSTYYADSVKGRFTISRDNAKNTLYLQMNSLKSEDTAVYYCAKHLGNWGEYNYWGQGTQVTVSSRSSTKGPKLEEGEFSEAQLQSALTQPPSVSGSPGKTVTISCAGTGGDVGYRNSVSWYQQLPGMAPKLLIYDVDKRASGITDRFSGSKSGDTASLTISGVQSEDEADYYCASQRSGIAAVFGGGTHLTVLG
enhancement of TNF-induced toxicity (HeLa-RIPK3-FADDKO cells, 1 ng/ml TNF), ED50: < 0.1 µg/mL
p100 processing (western blot), starting concentration: ~20 ng/mL

B7: 18D1-(4) (antibody)
heavy: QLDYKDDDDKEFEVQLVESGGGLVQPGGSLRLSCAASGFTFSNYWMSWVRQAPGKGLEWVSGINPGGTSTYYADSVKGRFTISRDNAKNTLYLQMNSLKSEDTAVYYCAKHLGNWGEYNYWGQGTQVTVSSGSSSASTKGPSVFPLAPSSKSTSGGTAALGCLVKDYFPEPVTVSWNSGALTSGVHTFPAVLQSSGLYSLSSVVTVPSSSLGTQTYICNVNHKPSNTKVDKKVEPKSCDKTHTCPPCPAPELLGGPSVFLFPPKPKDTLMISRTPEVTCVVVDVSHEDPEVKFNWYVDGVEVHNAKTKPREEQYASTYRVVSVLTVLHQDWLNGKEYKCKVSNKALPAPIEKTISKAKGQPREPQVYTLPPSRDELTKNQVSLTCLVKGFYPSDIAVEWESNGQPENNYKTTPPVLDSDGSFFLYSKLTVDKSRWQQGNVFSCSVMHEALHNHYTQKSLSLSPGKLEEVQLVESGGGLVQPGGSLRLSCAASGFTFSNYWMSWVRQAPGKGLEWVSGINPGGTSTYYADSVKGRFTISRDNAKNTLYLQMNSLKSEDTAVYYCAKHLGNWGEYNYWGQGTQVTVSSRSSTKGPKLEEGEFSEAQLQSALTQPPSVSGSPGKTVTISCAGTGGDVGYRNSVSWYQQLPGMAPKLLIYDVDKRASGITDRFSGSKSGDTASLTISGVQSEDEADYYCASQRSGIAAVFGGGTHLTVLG
light: B6 light
enhancement of TNF-induced toxicity (HeLa-RIPK3-FADDKO cells, 1 ng/ml TNF), ED50: < 0.1 µg/mL
p100 processing (western blot), starting concentration: ~20 ng/mL
